Ends that are not written are not given here.
Assays:
[1] = target: T1, biotinylated peptide spanning amino acid residues 64-78 of SEQ ID NO:3 (human, also: biotinylated, position not given here); assay: ELISA, biotinylated peptides on streptavidin plate
T1 peptide: VTQARMVSKSKDGTG
Protocol: (§1) A range of overlapping biotinylated peptides spanning the entire 383aa 4RON human tau protein were used for mapping the murine 16G7 antibody. Additional peptides were used to model potential post-translational modifications of the C- and N-terminal ends of the protein.
(§2) Biotinylated peptides were bound to separate wells of a streptavidin-coated ELISA plate. The plate was blocked and treated with murine 16G7, followed by incubation with a horseradish peroxidase-conjugated anti-mouse antibody. After thorough washing, OPD was applied to the plate and allowed to develop. The plate was read at 450 nm absorbance. Background subtraction was performed with absorbance values from wells containing no primary antibody, and a threshold for positive binding was set to 0.2 absorbance units.

[2] = target: T2, biotinylated peptide spanning amino acid residues 55-69 of SEQ ID NO:3 (human, also: biotinylated, position not given here); assay: ELISA, biotinylated peptides on streptavidin plate
T2 peptide: SLEDEAAGHVTQARM
Protocol: as §1, §2

[3] = target: T3, 4R0N human tau (383 amino acids) (human, UniProt P10636 1-758, radio-iodinated (125I) in the precipitation screen); assay: precipitation of 125I-labeled tau by hybridoma supernatants
T3 construct: Purified from SF9 cells infected with a tau baculovirus construct; also called 4RON human tau; 4R0N tau
Protocol: Monoclonal antibody 16G7 was prepared according to a modification of the method of Kohler and Milstein (G. Kohler and C. Milstein (1975) Nature 256:495-497). Human tau containing all 4 microtubule binding repeats, and lacking the N-terminal splice variants (4R0N tau, 383 amino acids) was used in all injections and screening assays. Tau was purified from SF9 cells infected with a tau-containing baculovirus construct (J. Knops et al. (1991) J Cell Biol 115(5):725-33). Six week old ALI mice were injected with 100 μg of purified tau at two week intervals. Tau was emulsified in complete Freund's adjuvant for the first immunization and in incomplete Freund's adjuvant for all subsequent immunizations. Serum samples were taken three days after the third injection to assess the titer of these animals. The highest titer mouse was injected intravenously with 100 μg of tau in 500 μL of PBS two weeks after receiving its third injection. The myeloma fusion occurred three days later using SP2/0 as the fusion partner. Supernatants from wells containing hybridoma cells were screened for their ability to precipitate ¹²⁵I-labeled tau. Tau was radio-iodinated using immobilized glucose oxidase and lactoperoxidase according to the manufacturer's instructions (Bio-Rad). […] The isotypes of 16G7 was determined to be gamma 1 kappa.

T3 sequence (P10636 other isoform, or with tags, fused parts or gaps limits assumed): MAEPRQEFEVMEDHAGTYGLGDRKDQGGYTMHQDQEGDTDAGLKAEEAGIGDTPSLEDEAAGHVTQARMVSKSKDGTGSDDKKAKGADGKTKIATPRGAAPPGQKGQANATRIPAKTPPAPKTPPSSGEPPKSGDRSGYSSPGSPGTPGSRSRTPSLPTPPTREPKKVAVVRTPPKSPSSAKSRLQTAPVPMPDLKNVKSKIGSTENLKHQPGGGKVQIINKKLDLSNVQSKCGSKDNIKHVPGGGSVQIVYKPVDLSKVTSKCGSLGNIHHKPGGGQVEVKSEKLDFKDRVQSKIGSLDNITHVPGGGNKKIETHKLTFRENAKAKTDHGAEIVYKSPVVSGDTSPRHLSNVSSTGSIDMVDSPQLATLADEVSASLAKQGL

binding result [1]: binds | binding result [2]: binds | binding result [3]: binds
B1: murine 16G7 monoclonal antibody (antibody, V domains shown)
VH: QVQLQQPGSVLVRPGASVKLSCKASGYTFTSSWIHWAKQRPGQGLEWIGEIYPNSGNTNYNEKFKGKATLTVDISSSTAYVDLTSLTSEDSAVYYCARLGWLIPLDYWGQGTTLIVSS
VL: DIVLSQSPSSLAVSVGEKVTMSCKSSQSLLDGNDQKNYLAWYQQKPGQSPKLLMYWASTRESGVPDRFTGSGSGTDFTLTISSLKAEDLAVYYCQQFYDYPWTFGGGTKLEIKR
notes: also called mouse 16G7; m16G7

Reference: US20190330316A1 (PROTHENA BIOSCIENCES, published 2019)
